# Measured values taken from IntAct's records for PubMed 29039417.
# B1: BBSome complex member BBS4 (Homo sapiens), Q96RK4 (parent)
# chain: MAEERVATRTQFPVSTESQKPRQKKAPEFPILEKQNWLIHLHYIRKDYEACKAVIKEQLQETQGLCEYAIYVQALIFRLEGNIQESLELFQTCAVLSPQSADNLKQVARSLFLLGKHKAAIEVYNEAAKLNQKDWEISHNLGVCYIYLKQFNKAQDQLHNALNLNRHDLTYIMLGKIHLLEGDLDKAIEVYKKAVEFSPENTELLTTLGLLYLQLGIYQKAFEHLGNALTYDPTNYKAILAAGSMMQTHGDFDVALTKYRVVACAVPESPPLWNNIGMCFFGKKKYVAAISCLKRANYLAPFDWKILYNLGLVHLTMQQYASAFHFLSAAINFQPKMGELYMLLAVALTNLEDIENAKRAYAEAVHLDKCNPLVNLNYAVLLYNQGEKKNALAQYQEMEKKVSLLKDNSSLEFDSEMVEMAQKLGAALQVGEALVWTKPVKDPKSKHQTTSTSKPASFQQPLGSNQALGQAMSSAAAYRTLPSGAGGTSQFTKPPSLPLEPEPAVESSPTETSEQIREK
# partner: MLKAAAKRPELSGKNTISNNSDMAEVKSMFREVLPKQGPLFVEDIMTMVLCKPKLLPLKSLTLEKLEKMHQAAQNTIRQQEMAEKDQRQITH
# Variants of: B1
# Conditions: with bbip1_human BBIP1, A8MTZ0
row,Variant,effect of a mutation on the interaction
1,A426E,with no effect
2,A426K,with no effect
3,G425K,with no effect
4,G425A,with no effect
5,G425E,with no effect
6,Q422K,with no effect
7,Q422A,with no effect
8,Q422E,with no effect
9,G431A,with no effect
10,G431K,with no effect
11,G431E,with no effect
12,E432A,with no effect
13,E432K,with no effect
14,L424E,with no effect
15,L424K,with no effect
16,L424A,disrupting interaction strength
17,L424S,disrupting interaction strength
18,K423E,with no effect
19,K423A,with no effect
20,L428P,disrupting interaction strength
21,L428A,with no effect
22,L428K,with no effect
23,L428E,with no effect
24,V430K,with no effect
25,V430A,with no effect
26,V430E,with no effect

row,Variant,effect of a mutation on the interaction
1,A421E,with no effect
2,A421V,disrupting interaction strength
3,A421K,with no effect
4,K438E,with no effect
5,K438A,with no effect
6,Q429E,with no effect
7,Q429A,with no effect
8,Q429K,with no effect
9,P439A,with no effect
10,M420K,with no effect
11,A427E,with no effect
12,A427K,with no effect
13,W436E,with no effect
14,W436K,with no effect
15,W436A,with no effect
16,V435A,with no effect
17,V435E,with no effect
18,V435K,with no effect
19,T437K,with no effect
20,T437A,with no effect
21,T437E,with no effect
22,A433K,with no effect
23,A433E,with no effect
24,L434K,with no effect
25,L434E,with no effect
26,L434A,with no effect

# Next, values leading:
row,effect of a mutation on the interaction,Variant
1,with no effect,T449A
2,with no effect,T449E
3,with no effect,T449K
4,with no effect,T450E
5,with no effect,T450K
6,with no effect,T450A
7,with no effect,K446E
8,with no effect,K446A
9,with no effect,T452K
10,with no effect,T452A
11,with no effect,T452E
12,with no effect,V440K
13,with no effect,V440E
14,with no effect,V440A
15,with no effect,P443A
16,with no effect,P443K
17,with no effect,P443E
18,with no effect,Q448E
19,with no effect,Q448A
20,with no effect,Q448K

row,effect of a mutation on the interaction,Variant
1,with no effect,P439K
2,with no effect,P439E
3,with no effect,H447A
4,with no effect,H447K
5,with no effect,H447E
6,with no effect,K444A
7,with no effect,K444E
8,with no effect,S445A
9,with no effect,S445K
10,with no effect,S445E
11,with no effect,S451E
12,with no effect,S451A
13,with no effect,S451K
14,with no effect,S453E
15,with no effect,S453A
16,with no effect,K441E
17,with no effect,K441A
18,with no effect,D442A
19,with no effect,D442K
20,with no effect,D442E
